Literature values in publication PMC4596410.

Target: Lys115 (UniProt position 115, LSAYPKKLGYP)

Substance: Acetoacetate decarboxylase (not stated in the article (Clostridium acetobutylicum inferred))
- pKa: 6
